Reference: patent publication US20260202410A1 (NORDIC BIOSCIENCE A S, published 2026)

B1: standard peptide QRAFNKGPDP (PRO-C9 target sequence, C-terminus of type IX collagen alpha-1 chain) (peptide)
peptide: QRAFNKGPDP
notes: Synthetic peptide from Genscript with a free C-terminus; also called selection peptide
B2: monoclonal antibody clone NBH313 #46 9H11-1D9-2B6 (antibody, V domains shown)
VH: EVQLVESGGGLVQPKGSLKLSCAASGFTFNIYTMNWVRQAPGKGLEWVARIRSKSENYATYYADSVKDRFTISRDDSQSILYLQMNNLKTEDTAIYYCVRQGIYYDYYGAMDYWGQGTSVTVSS
VL: NIMMTQSPSSLAVSAGEKATMSCKSSQSLLYSSNQMNYLAWYQQKPGQSPKLLIYWASTRESDVPDRFTGSGSGTDFTLTISSVQTEDLAVYYCHQYFSSRTFGGGTKLEIKR
notes: Mouse (Balb/C) hybridoma monoclonal antibody; also called PRO-C9 antibody; the mAb

What was measured:
[1] = biological target: B2; assay: competitive CLIA: free standard peptide against coated Biotin-… for HRP-labelled antibody
Procedure: (§1) Next, 20 μL/well of standard peptide (100 ng/mL) and samples were added to the appropriate wells, followed by the addition of 100 μL/well of HRP-labelled antibody diluted in assay buffer to the concertation of 100 ng/mL and incubated for 20 h at 4° C. with constant shaking (300 rpm) in darkness. After each incubation step, wells were washed with standard washing buffer (20 mM Tris, 50 mM NaCl, pH 7.2). The chemiluminescence substrate (Roche, BM Chemiluminescence ELISA substrate (POD), Basel, Switzerland) working solutions were mixed 15 min before use and 100 μL/well were added to plate and incubated for 3 min at 20° C. with constant shaking (300 rpm) in darkness. The relative light units were measured at all wavelengths within 5 min on a microplate luminometer reader (SpectraMax M5, Molecular Devices, CA, USA).
Accuracy of the assay was measured in healthy human serum samples spiked with standard peptide and a serum sample with a known high PRO-C9 concentration and calculated as the percentage recovery of the measured value and the expected concentration of the peptide or the serum sample with high PRO-C9 plus the concentration of the analyte in serum. […] Recovery percentage was calculated with the normal serum sample as reference. […] The interference was calculated as the percentage recovery of the analyte in non-spiked serum. […]

[2] = biological target: T1, non-sense coating and standard peptide DQAAGGLRQH; assay: competitive CLIA, non-sense peptide tested as free standard and as coater
T1 construct: also called non-sense peptide; non-sense standard peptide
T1 peptide: DQAAGGLRQH
Procedure: (§2) The development of the competitive chemiluminescence immunoassay (CLIA) included several preliminary optimizing experiments where reagents, concentrations, incubation-time and -temperature were analysed by several tests. The PRO-C9 competitive ELISA procedure was as follows: A 96-well streptavidin-coated white microplate (Greiner Bio-One, Kremsminster, Austria) was coated with 5 ng/mL biotinylated synthetic peptide (Biotin-[…] SEQ ID No. 18) dissolved in assay buffer (10 mM phosphate buffered saline (PBS), 1% bovine serum albumin, 0.1% Tween-20, 0.36% Bronidox, 4 g/L NaCl, adjusted to pH 7.4 at 20° C.) and incubated for 30 min at 20° C. with constant shaking (300 rpm) in darkness.
as §1, with “The chemiluminescence substrate (Roche, BM Chemiluminescence ELISA substrate (POD), Basel, Switzerland) working solutions were mixed 15 min before use and 100 μL/well were added to plate and incubated for 3 min at 20° C. with constant shaking (300 rpm) in darkness.” left out
(§3) Two-fold dilutions of four human serum samples were used to assess linearity. Linearity was calculated as a percentage of recovery of the undiluted sample. […]

[3] = biological target: T2, truncated peptide QRAFNKGPD; assay: competitive CLIA, signal inhibition by two-fold diluted peptide
T2 construct: also called truncated selection peptide
T2 peptide: QRAFNKGPD
Procedure: as §2
as §1, with “The chemiluminescence substrate (Roche, BM Chemiluminescence ELISA substrate (POD), Basel, Switzerland) working solutions were mixed 15 min before use and 100 μL/well were added to plate and incubated for 3 min at 20° C. with constant shaking (300 rpm) in darkness.” left out
as §3

[4] = biological target: T3, elongated peptide QRAFNKGPDPG; assay: as above
T3 construct: also called elongated selection peptide
T3 peptide: QRAFNKGPDPG
Procedure: as §2
as §1, with “The chemiluminescence substrate (Roche, BM Chemiluminescence ELISA substrate (POD), Basel, Switzerland) working solutions were mixed 15 min before use and 100 μL/well were added to plate and incubated for 3 min at 20° C. with constant shaking (300 rpm) in darkness.” left out
as §3

[5] = biological target: B1; assay: ELISA screening of hybridoma clones
Procedure: An indirect ELISA performed on streptavidin-coated plates was used for the screening of supernatant reactivity. Biotin-[…] was used as screening peptide, while the standard peptide […] was used to further test the specificity of the clones. Supernatant was collected from the hybridoma cells and purified using HiTrap affinity columns (GEHealthcare Life Science, Little Chalfront, Buckinghamshire, UK) according to manufacturer instructions and antibody isotype was determined using Rapid ELISA Mouse monoclonal antibody Isotyping Kit (Invitrogen, Carlsbad, CA, USA) following the manufacturer's protocol.

With B1 as the binder, how does the IC50 [1] read?
The IC50 was 3.62 ng/mL.

Does B2 bind [2]?
Result: no binding

Does B2 bind [3]?
Result: no binding

Does B2 bind [4]?
Result: no binding

Does B2 bind [5]?
Result: binds
